The target in the assay is hCXCR3 (human) (UniProt P49682). In words: cell-based or functional assay.
Chain of hCXCR3 (human) (P49682 whole entry): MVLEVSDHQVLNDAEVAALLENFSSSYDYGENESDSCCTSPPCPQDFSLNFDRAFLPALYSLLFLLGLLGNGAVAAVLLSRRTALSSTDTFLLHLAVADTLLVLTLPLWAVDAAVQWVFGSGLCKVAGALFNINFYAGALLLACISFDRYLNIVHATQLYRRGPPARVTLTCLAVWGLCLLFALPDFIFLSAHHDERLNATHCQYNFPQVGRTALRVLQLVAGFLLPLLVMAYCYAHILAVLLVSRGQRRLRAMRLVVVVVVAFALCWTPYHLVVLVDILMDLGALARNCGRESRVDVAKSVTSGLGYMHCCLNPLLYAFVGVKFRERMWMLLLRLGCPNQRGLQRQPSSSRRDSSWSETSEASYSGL

B1: recombinant native ITAC (ligand, UniProt O14625 22-94, looked up)
chain: FPMFKRGRCLCIGPGVKAVKVADIEKASIMYPSNNCDKIEVIITLKENKGQRCLNPKSKQARLIIKKVERKNF
B1 registered an EC50, agonist activity in an Aequorin assay of 0.7 nM.
